# Measured values reported in patent US20250042991A1 (University of Texas, published 2025).
# B1: hLept-6 (antibody, V domains shown)
# VH: QVQLMQSGAEVKKPGASVKVSCKASGYTFTSYYMHWVRQAPGQGLEWMGIINPSGGSTSYAQKFQGRVTMTRDTSTSTVYMELSSLRSEDTAVYYCARGFGYGGKALDYWGQGTTVTVSS
# VL: DIQMTQSPPTLSASVGDRVTITCRASQNINSRLAWYQQKPGRAPKLLIYKASTLESGVPSRFSGSGSGTEFTLTISSLQPDDFATYYCQQFDKYSITFGGGTKMEIK
# notes: Expressed as full human IgG in HEK293 cells
# B2: hLept-2 (antibody, V domains shown)
# VH: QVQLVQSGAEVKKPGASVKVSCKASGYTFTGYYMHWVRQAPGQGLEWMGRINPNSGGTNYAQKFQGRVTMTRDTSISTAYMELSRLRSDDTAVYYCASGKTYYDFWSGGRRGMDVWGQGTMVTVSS
# VL: DIQLTQSPSSLSASVGDRVTITCRAGQSVSRYLNWFQQKPGKAPKLLIYTSSNLQSGVPSRFSASGSGTDFTLTISSLQPEDFATYYCQQTYSTPWTFGQGTKLEIK
# notes: as for B1
# B3: hLept-3 (antibody, V domains shown)
# VH: QVQLVQSGAEVKKPGSSVKVSCKASGGTFSSYAISWVRQAPGQGLEWMGGIIPIFGTANYAQKFQGRVTITADESTSTAYMELSSLRSEDTAVYYCARSQVPSSYYYGMDVWGQGTMVTVSS
# VL: QSVLTQPPSVSGAPGQRVTISCTGGNSNIGAGYHVHWYQQLPGAAPKLLIYGDTNRPSGVPDRFSGSQSGTSASLAITGLQADDEADYYCQSYDRSRGGWFFGGGTQLTVL
# notes: Expressed as full human IgG in HEK293 cells; also called hLetp-3
# B4: hLept-5 (antibody, V domains shown)
# VH: QVKLVEWSLSVVQPGRSLRLSCAASGFTFSSYAMHWVRQAPGKGLEWVAVISYDGSNKYYADSVKGRFTISRDNSKNTLYLQMNSLRAEDTAVYYCARGREYYYYMDVWGKGTTVSVSS
# VL: QSVLTQPPSVSVAPGKTARITCGGYNIARKSVHWYQQKPGQAPVLVMYNDNDRPSGIPERFSGSNSGNTATLTISRVEAGDEADYYCQVWDNSDYVFGTGTKVTVL
# notes: as for B1
# B5: hLept-1 (antibody, V domains shown)
# VH: QVQLQQLGPGLVKPSETLSLTCNVSGGSVSRGSHYWTWIRQPPGKGLEWIGYIHTDGSTNFNPSLKSRVTMSLDRSRNQFSLTLSSVTATDTAVYYCAREPGGALNFWGQGTLVTVSS
# VL: not shown
# notes: From a human scFv phage library, expressed as full human IgG in HEK293 cells
# Target: T1, human leptin (human, UniProt P41159 22-167)
# T1 construct: Bought recombinant protein coated on ELISA plates; also called Leptin protein; LEPTIN antigen
# T1 sequence (P41159 22-167 limits assumed): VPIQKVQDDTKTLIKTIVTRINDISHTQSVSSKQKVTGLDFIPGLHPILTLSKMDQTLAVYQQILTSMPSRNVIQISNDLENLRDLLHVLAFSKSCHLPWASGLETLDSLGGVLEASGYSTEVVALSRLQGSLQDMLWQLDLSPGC
# Test: ELISA, human leptin coated on plate, 1:20 diluted culture supernatant
# Procedure: Binding of LEPTIN by monoclonal antibodies was first screened by ELISA using supernatants collected from the B cell cultures. Human or mouse LEPTIN protein (Sino Biologicals) was coated on a 96-well high binding plate over night at 4° C. in PBS. B cell culture supernatants (5 μl medium and 95 μl of PBS) were added at for binding to LEPTIN antigen coated on the plate. Bound antibody was detected using a secondary antibody against rabbit IgG conjugated with HRP and TMB substrate.
row,Binder,absorbance at 450 nM [absorbance at 450 nM]
1,B1,0.663
2,B2,2.57
3,B3,0.19
4,B4,0.739
5,B5,0.071

# Target: T1, human leptin
# Test: ELISA titration on coated leptin, 4 parameter fit
# Procedure: ELISA titration was used to determine the binding affinity of a panel of monoclonal antibodies to LEPTIN antigen. Binding constants (KD and/or EC 50) of a panel of monoclonal antibodies were estimated using the 4 parameter curve fitting with Prism GraphPad program. For Biacore analysis, all experiments were performed at 25° C. at a flow rate of 45 μl/min. An anti-human IgG Fc antibody (from ThermoFisher, at 50 μg/ml each in acetate buffer, pH 5.0) was immobilized onto a carboxymethyl dextran sensorchip (CM5) using amine coupling procedures based on instruction from the manufacturer. Purified rabbit/human chimeric antibody to be tested was diluted at a concentration of 5 μg/ml in 0.5% P20, HBS-EP buffer and injected on FC2 to reach 500 to 1000 RU. FC1 was used as the reference cell. Specific signals correspond to the difference of signals obtained on FC2 versus FC1. The analyte (recombinant human LEPTIN, apparent molecular weight 16 kDa on SDS-PAGE gel) was injected during 90 sec at series of concentration dilutions (100, 50, 25, 12.5, 6.25, and 3.13, 1.56 nM) in 0.5% P20, HBS-EP buffer. These concentrations were prepared from stock solution in 0.5% P20, HBS-EP. The dissociation phase of the analyte was monitored over a 30 minutes period. Running buffer was also injected under the same conditions as a double reference. After each running cycle, both flow cells were regenerated by injecting 20 to 45 μl of Glycine-HCl buffer pH 1.5. Binding KD on LEPTIN was calculated by koff/kₒₙ kinetic rate for each LEPTIN monoclonal antibodies (Table 3).
row,Binder,EC50 [nM]
1,B1,1 to 500
2,B2,1 to 500
3,B3,1 to 500
4,B4,1 to 500
5,B5,1 to 500
